Assay results as given in the supplement of paper PMC12042874.
± gives the uncertainty stated by the source.

Legend:
[1] = amyloid nucleation score (Sup35N fusion, yeast selection) (log enrichment); library NNK3; higher = more nucleation; inactive = no reads after selection
Method in brief: (§1)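 In psi-negative yeast, Sup35N fusions carrying peptides of 20 random codons were induced with 100 μM copper sulfate for 24 hours. The cells then grew 7 days at 30°C on medium lacking adenine and uracil, and plasmid inserts from input and output were Illumina-sequenced, excluding sequences with under 100 input reads. Nucleation score is the DiMSum log enrichment of output over input reads, centred on the mode score of non-aggregating sequences.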

[2] = amyloid nucleation score (Sup35N fusion, yeast selection) (log enrichment); library NNK1; higher = more nucleation; inactive = no reads after selection
Method in brief: as §1

Substance	amyloid nucleation score [1]	amyloid nucleation score [2]
LMYMS	inactive	-0.11 ± 0.67
YTRMLLRGAIETGFYPNMLE	–	-1.2 ± 2.1
YTSGLFGF	–	-0.531 ± 0.37
YTSIGI	–	-0.144 ± 0.45
YTTHLCLGAVSLYYVSGYTR	–	2.44 ± 0.13
YTVMVVI	–	1.44 ± 0.4
YTVRGRDYNGAM	–	-1.3 ± 2.4
YTWGRLGSEIKPARASMHLA	–	1.08 ± 0.75
YVCFVQSCFYARQGHMSGEA	–	0.165 ± 0.31
YVDDFPRQSAGFIDT	–	2 ± 0.57
YVGAMCLTRGKVRRSEERN	–	0.553 ± 0.54
YVKISVLGSKIYNIS	–	5.38 ± 0.093
YVLFFSPCT	–	inactive
YVLMPWSFLLHGMRNLTAMS	–	inactive
YVMDYSD	–	0.096 ± 0.61
YVPGTNILLIIGEICQVPTD	–	2.18 ± 0.22
YVQTLSNTECNAIANMHERF	–	0.641 ± 0.42

Substance	amyloid nucleation score [1]	amyloid nucleation score [2]
YVRIVIAYFKFSKQFSSQLV	–	0.089 ± 0.22
YVSLLYLLWLI	–	-0.326 ± 0.32
YWIFFNT	–	3.16 ± 0.13
YWIIKVRNRLVPRFFKYKGS	–	-0.491 ± 0.39
YWLLLSSENRECVLVTRRHR	–	-0.585 ± 1.7
YWLSTTIRYVCEVQATPCWI	–	-1.31 ± 2.7
YWPGLGFMFDNYSI	–	0.555 ± 0.71
YWTSIHSLNTSIP	–	-0.229 ± 0.62
YWWDIRWGEAGSRERRVELG	–	0.078 ± 0.53
YWYFYISDRVKDNSCSNWSL	–	-1.03 ± 0.47
YYEMIFSWVTPHSYRDTSYC	–	-0.733 ± 1.9
YYFRFCREVIARLGMDMSSK	–	-0.341 ± 0.29
YYNVYTTYTASVWGTYRWNV	–	-1.45 ± 0.82
YYRKHFRLYIIIWDLFKI	–	0.282 ± 0.97
YYSFGRFKYTILL	–	-0.242 ± 0.6
YYSYMNCIMITISLLMLVLQ	–	-0.052 ± 0.21
YYYYPNGDCEKK	–	-0.657 ± 0.63
